Experimental data taken from US20110124841A1 (published 2011).
MPEG 20 kDa = 20 kDa MPEG from MPEG iodoacetamide

Experiments:
[1] = biological target: SG N-protein (SEQ ID NO:4); assay: cell-based or functional assay
[2] = biological target: SB N-protein (SEQ ID NO:2); assay: cell-based or functional assay

| Binder | efficiency of the trans-splicing, from SDS-PAGE protein band intensity; room temperature, molar ratio of C-protein to N-protein approximately 1 (Lane 9) [1] | efficiency of the trans-splicing, from SDS-PAGE protein band intensity; room temperature, molar ratio of C-protein to N-protein approximately 5 (Lane 13) [1] | efficiency of the trans-splicing reaction, from SDS-PAGE protein band intensity; molar ratio approximately 1 [2] |
| --- | --- | --- | --- |
| PEGylated SG C-protein (residues 388 to 449 of SEQ ID NO:3) (other) GTLEHHHHHHGSEAVLNYNHRIVNIEAVSETIDVYDIEVPHTHNFALASGVFVHNSAGGC(MPEG 20 kDa)GP | ~50% | ~90% | – |
| PEGylated SB C-protein (residues 388 to 453 of SEQ ID NO:1) (other) GTLEHHHHHHGSPEIEKLSQSDIYWDPIVSITETGVEEVFDLTVPGPRNFVANDIIVHNSGGGC(MPEG 20 kDa)GP | – | – | ~30% |
